Measurements reported in patent US6703362 (CYTOGEN, dated 2004).

B1: SNi10 (peptide)
peptide: RVGQCTDSDVRRPWARSCAHQGCGAGTRNSHGCITRPLRQASAHAETVESCLAKPHTENSFTNVWKDDKTLDRYANYEGCLWNATGVVVCTGDETQCYGTWVPIGLAIPENEGGGSEGGGSEGGGSEGGGTKPPEYGDTPIPGYTYINPLDGTYPPGTEQNPANPNPSLEESQPLNTFMFQNNRFRNRQGALTVYTGTVTQGTDPVKTYYQYTPVSSKAMYDAYWNGKFRDCAFHSGFNEDPFVCEYQGQSSDLPQPPVNAGGGSGGGSGGGSEGGGSEGGGSEGGGSEGGGSGGGSGSGDFDYEKMANANKGAMTENADENALQSDAKGKLDSVATDYGAAIDGFIGDVSGLANGNGATGDFAGSNSQMAQVGDGDNSPLMNNFRQYLPSLPQSVECRPFVFSAGKPYEFSIDCDKINLFRGVFAFLLYVATFMYVFSTFANILRNKES
notes: Assayed as M13 phage clone displaying the insert
B2: SNi28 (peptide)
peptide: SHSGGMNRAYGDVFRELRDRWNATSHHTRPTPQLPRGPNAETVESCLAKPHTENSFTNVWKDDKTLDRYANYEGCLWNATGVVVCTGDETQCYGTWVPIGLAIPENEGGGSEGGGSEGGGSEGGGTKPPEYGDTPIPGYTYINPLDGTYPPGTEQNPANPNPSLEESQPLNTFMFQNNRFRNRQGALTVYTGTVTQGTDPVKTYYQYTPVSSKAMYDAYWNGKFRDCAFHSGFNEDPFVCEYQGQSSDLPQPPVNAGGGSGGGSGGGSEGGGSEGGGSEGGGSEGGGSGGGSGSGDFDYEKMANANKGAMTENADENALQSDAKGKLDSVATDYGAAIDGFIGDVSGLANGNGATGDFAGSNSQMAQVGDGDNSPLMNNFRQYLPSLPQSVECRPFVFSAGKPYEFSIDCDKINLFRGVFAFLLYVATFMYVFSTFANILRNKES
notes: as for B1
B3: DAB7 (peptide)
peptide: RWCGADDPCGASRWRGGNSLFGCGLRCSAAQSTPSGRIHSTSTSAETVESCLAKPHTENSFTNVWKDDKTLDRYANYEGCLWNATGVVVCTGDETQCYGTWVPIGLAIPENEGGGSEGGGSEGGGSEGGGTKPPEYGDTPIPGYTYINPLDGTYPPGTEQNPANPNPSLEESQPLNTFMFQNNRFRNRQGALTVYTGTVTQGTDPVKTYYQYTPVSSKAMYDAYWNGKFRDCAFHSGFNEDPFVCEYQGQSSDLPQPPVNAGGGSGGGSGGGSEGGGSEGGGSEGGGSEGGGSGGGSGSGDFDYEKMANANKGAMTENADENALQSDAKGKLDSVATDYGAAIDGFIGDVSGLANGNGATGDFAGSNSQMAQVGDGDNSPLMNNFRQYLPSLPQSVECRPFVFSAGKPYEFSIDCDKINLFRGVFAFLLYVATFMYVFSTFANILRNKES
notes: as for B1
B4: DAB18 (peptide)
peptide: RSSANNCEWKSDWMRRACIARYANSSGPARAVDTKAAPAETVESCLAKPHTENSFTNVWKDDKTLDRYANYEGCLWNATGVVVCTGDETQCYGTWVPIGLAIPENEGGGSEGGGSEGGGSEGGGTKPPEYGDTPIPGYTYINPLDGTYPPGTEQNPANPNPSLEESQPLNTFMFQNNRFRNRQGALTVYTGTVTQGTDPVKTYYQYTPVSSKAMYDAYWNGKFRDCAFHSGFNEDPFVCEYQGQSSDLPQPPVNAGGGSGGGSGGGSEGGGSEGGGSEGGGSEGGGSGGGSGSGDFDYEKMANANKGAMTENADENALQSDAKGKLDSVATDYGAAIDGFIGDVSGLANGNGATGDFAGSNSQMAQVGDGDNSPLMNNFRQYLPSLPQSVECRPFVFSAGKPYEFSIDCDKINLFRGVFAFLLYVATFMYVFSTFANILRNKES
notes: as for B1
B5: DAB24 (peptide)
peptide: SKWSWSSRWGSPQDKVEKTRAGCGGSPSSTNCHPYTFAPPPQAGAETVESCLAKPHTENSFTNVWKDDKTLDRYANYEGCLWNATGVVVCTGDETQCYGTWVPIGLAIPENEGGGSEGGGSEGGGSEGGGTKPPEYGDTPIPGYTYINPLDGTYPPGTEQNPANPNPSLEESQPLNTFMFQNNRFRNRQGALTVYTGTVTQGTDPVKTYYQYTPVSSKAMYDAYWNGKFRDCAFHSGFNEDPFVCEYQGQSSDLPQPPVNAGGGSGGGSGGGSEGGGSEGGGSEGGGSEGGGSGGGSGSGDFDYEKMANANKGAMTENADENALQSDAKGKLDSVATDYGAAIDGFIGDVSGLANGNGATGDFAGSNSQMAQVGDGDNSPLMNNFRQYLPSLPQSVECRPFVFSAGKPYEFSIDCDKINLFRGVFAFLLYVATFMYVFSTFANILRNKES
notes: as for B1
B6: DAB30 (peptide)
peptide: SGFWEFSRGLWDGENRKSVRSGCGFRGSSAQGPCPVTPATIDKHAETVESCLAKPHTENSFTNVWKDDKTLDRYANYEGCLWNATGVVVCTGDETQCYGTWVPIGLAIPENEGGGSEGGGSEGGGSEGGGTKPPEYGDTPIPGYTYINPLDGTYPPGTEQNPANPNPSLEESQPLNTFMFQNNRFRNRQGALTVYTGTVTQGTDPVKTYYQYTPVSSKAMYDAYWNGKFRDCAFHSGFNEDPFVCEYQGQSSDLPQPPVNAGGGSGGGSGGGSEGGGSEGGGSEGGGSEGGGSGGGSGSGDFDYEKMANANKGAMTENADENALQSDAKGKLDSVATDYGAAIDGFIGDVSGLANGNGATGDFAGSNSQMAQVGDGDNSPLMNNFRQYLPSLPQSVECRPFVFSAGKPYEFSIDCDKINLFRGVFAFLLYVATFMYVFSTFANILRNKES
notes: as for B1
B7: DAX15 (peptide)
peptide: SESGRCRSVSRWMTTWQTQKGGCGSNVSRGSPLDPSHQTGHATTAETVESCLAKPHTENSFTNVWKDDKTLDRYANYEGCLWNATGVVVCTGDETQCYGTWVPIGLAIPENEGGGSEGGGSEGGGSEGGGTKPPEYGDTPIPGYTYINPLDGTYPPGTEQNPANPNPSLEESQPLNTFMFQNNRFRNRQGALTVYTGTVTQGTDPVKTYYQYTPVSSKAMYDAYWNGKFRDCAFHSGFNEDPFVCEYQGQSSDLPQPPVNAGGGSGGGSGGGSEGGGSEGGGSEGGGSEGGGSGGGSGSGDFDYEKMANANKGAMTENADENALQSDAKGKLDSVATDYGAAIDGFIGDVSGLANGNGATGDFAGSNSQMAQVGDGDNSPLMNNFRQYLPSLPQSVECRPFVFSAGKPYEFSIDCDKINLFRGVFAFLLYVATFMYVFSTFANILRNKES
notes: as for B1
B8: DAX24 (peptide)
peptide: RMEDIKNSGWRDSCRWGDLRPGCGSRQWYPSNMRSSRDYPAGGHAETVESCLAKPHTENSFTNVWKDDKTLDRYANYEGCLWNATGVVVCTGDETQCYGTWVPIGLAIPENEGGGSEGGGSEGGGSEGGGTKPPEYGDTPIPGYTYINPLDGTYPPGTEQNPANPNPSLEESQPLNTFMFQNNRFRNRQGALTVYTGTVTQGTDPVKTYYQYTPVSSKAMYDAYWNGKFRDCAFHSGFNEDPFVCEYQGQSSDLPQPPVNAGGGSGGGSGGGSEGGGSEGGGSEGGGSEGGGSGGGSGSGDFDYEKMANANKGAMTENADENALQSDAKGKLDSVATDYGAAIDGFIGDVSGLANGNGATGDFAGSNSQMAQVGDGDNSPLMNNFRQYLPSLPQSVECRPFVFSAGKPYEFSIDCDKINLFRGVFAFLLYVATFMYVFSTFANILRNKES
notes: as for B1
B9: DAX27 (peptide)
peptide: SHPWYRHWNHGDFSGSGQSRHTPPESPHPGRPNATIAETVESCLAKPHTENSFTNVWKDDKTLDRYANYEGCLWNATGVVVCTGDETQCYGTWVPIGLAIPENEGGGSEGGGSEGGGSEGGGTKPPEYGDTPIPGYTYINPLDGTYPPGTEQNPANPNPSLEESQPLNTFMFQNNRFRNRQGALTVYTGTVTQGTDPVKTYYQYTPVSSKAMYDAYWNGKFRDCAFHSGFNEDPFVCEYQGQSSDLPQPPVNAGGGSGGGSGGGSEGGGSEGGGSEGGGSEGGGSGGGSGSGDFDYEKMANANKGAMTENADENALQSDAKGKLDSVATDYGAAIDGFIGDVSGLANGNGATGDFAGSNSQMAQVGDGDNSPLMNNFRQYLPSLPQSVECRPFVFSAGKPYEFSIDCDKINLFRGVFAFLLYVATFMYVFSTFANILRNKES
notes: as for B1

The binders below were run against T1, hSI receptor domain (human sucrase-isomaltase complex, amino acid residues 272-667), His-tag fusion protein (human, UniProt P14410 272-667) (assay: phage ELISA, OD on hSI over OD on BSA).
T1 construct: also called hS1; recombinant hSI; not shown: poly-histidine tag (pET vector) at the NH2-terminal end
T1 sequence (P14410 272-667, one chain of several): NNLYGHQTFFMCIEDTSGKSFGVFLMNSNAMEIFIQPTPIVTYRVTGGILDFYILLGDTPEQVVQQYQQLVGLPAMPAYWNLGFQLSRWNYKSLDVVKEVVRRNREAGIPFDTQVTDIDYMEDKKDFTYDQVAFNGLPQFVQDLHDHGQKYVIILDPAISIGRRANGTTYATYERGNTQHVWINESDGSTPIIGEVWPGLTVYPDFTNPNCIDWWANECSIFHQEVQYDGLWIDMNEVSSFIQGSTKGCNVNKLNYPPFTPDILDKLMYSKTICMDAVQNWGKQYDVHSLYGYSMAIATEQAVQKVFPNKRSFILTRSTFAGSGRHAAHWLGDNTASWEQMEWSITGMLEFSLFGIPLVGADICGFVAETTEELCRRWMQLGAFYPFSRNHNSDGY
Description: (§1) 6.6. Receptor ELISA Procedure 96 well plates were coated overnight with GIT receptor, BSA and, optionally, IDE (insulin degrading enzyme, an irrelevant His-fusion protein)or hTF. The plates were blocked for one hour with 0.5% BSA-PBS. After clarification, the amplified phage were diluted 1:100 in […] plus 0.05% Tween 20 in PBS and added to the plates. Following incubation of the plates on a rotator for 1 to 2 hours, the plates were washed 5 times with 1% BSA plus 0.05% Tween 20 in PBS. […] After the plates were washed 5 times, as described above, TMB substrate was added to the wells. The plates were read at 650 nm absorbance.

Binder	hSI/BSA [ratio]
B1	11
B2	8

Each binder was assayed against T1, hSI receptor domain (human …) (assay: phage ELISA, plate coated with hSI domain).
Description: as §1

Binder	OD [OD]
B1	0.57
B2	0.942

What follows are binders tested against T2, D2H receptor domain (human D2H transporter, amino acid residues 387-685), His-tag fusion protein (human, UniProt Q07837 387-685) (assay: phage ELISA, plate coated with D2H domain).
T2 construct: purified under denaturing conditions; also called recombinant D2H; not shown: poly-histidine tag (pET vector) at the NH2-terminal end
T2 sequence: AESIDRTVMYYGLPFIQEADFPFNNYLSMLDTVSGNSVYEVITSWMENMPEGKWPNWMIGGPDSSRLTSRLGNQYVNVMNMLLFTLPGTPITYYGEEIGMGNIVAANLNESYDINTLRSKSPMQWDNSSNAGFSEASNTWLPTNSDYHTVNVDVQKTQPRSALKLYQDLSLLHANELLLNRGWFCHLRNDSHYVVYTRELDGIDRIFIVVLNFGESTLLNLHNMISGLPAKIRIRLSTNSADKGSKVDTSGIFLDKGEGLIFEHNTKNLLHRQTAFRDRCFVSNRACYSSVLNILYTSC
Description: as §1

Binder	OD [OD]
B3	0.702
B4	0.467
B5	1.8
B6	0.704
B7	0.391
B8	0.591
B9	1.58
